Measured values: article PMC5996148, “Data set on G4 DNA interactions with human proteins”

How the values were obtained:
[1] = biological target: T1, GABA(A) receptor-associated protein (human, UniProt O95166 1-117); assay: protein microarray; 2.5 uM ON; 4.86 at 25 uM; Microarray: 20 mM Tris pH 7.5, 5 mM MgCl2, 100 mM KCl, 0.1% Tween-20, A/T-rich ON blocker mix; EMSA: 20 mM Tris-HCl pH 8, 100 mM KCl, 200 nM ON, 0-200 nM BRD3; conditions: protein: commercial; label: biotin; intramolecular parallel G4
[2] = biological target: T2, LOC153684 protein (FLJ42001 fis, clone SPLEN2029912) (human, UniProt Q6ZVW3 1-145); assay: as above; conditions: protein: commercial; label: biotin; intramolecular parallel G4
T2 sequence: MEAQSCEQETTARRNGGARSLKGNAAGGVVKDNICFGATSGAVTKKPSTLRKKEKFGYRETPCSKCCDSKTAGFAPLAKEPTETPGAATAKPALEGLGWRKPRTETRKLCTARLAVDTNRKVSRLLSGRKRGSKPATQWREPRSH

[3] = biological target: T3, survival motor neuron domain containing 1 (human, UniProt O75940 1-238); assay: as above; conditions: protein: commercial; label: biotin; intramolecular parallel G4
T3 sequence: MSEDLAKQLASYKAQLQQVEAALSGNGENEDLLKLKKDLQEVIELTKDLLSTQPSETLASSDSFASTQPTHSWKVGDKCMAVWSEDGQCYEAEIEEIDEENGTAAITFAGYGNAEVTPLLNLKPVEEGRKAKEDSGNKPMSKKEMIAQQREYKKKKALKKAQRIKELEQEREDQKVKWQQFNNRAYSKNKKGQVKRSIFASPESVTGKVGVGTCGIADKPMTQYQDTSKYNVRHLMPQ

[4] = biological target: T4, ankyrin repeat and zinc finger domain containing 1 (human, UniProt Q9H8Y5 1-726); assay: as above; conditions: protein: commercial; label: biotin; intramolecular parallel G4
T4 sequence: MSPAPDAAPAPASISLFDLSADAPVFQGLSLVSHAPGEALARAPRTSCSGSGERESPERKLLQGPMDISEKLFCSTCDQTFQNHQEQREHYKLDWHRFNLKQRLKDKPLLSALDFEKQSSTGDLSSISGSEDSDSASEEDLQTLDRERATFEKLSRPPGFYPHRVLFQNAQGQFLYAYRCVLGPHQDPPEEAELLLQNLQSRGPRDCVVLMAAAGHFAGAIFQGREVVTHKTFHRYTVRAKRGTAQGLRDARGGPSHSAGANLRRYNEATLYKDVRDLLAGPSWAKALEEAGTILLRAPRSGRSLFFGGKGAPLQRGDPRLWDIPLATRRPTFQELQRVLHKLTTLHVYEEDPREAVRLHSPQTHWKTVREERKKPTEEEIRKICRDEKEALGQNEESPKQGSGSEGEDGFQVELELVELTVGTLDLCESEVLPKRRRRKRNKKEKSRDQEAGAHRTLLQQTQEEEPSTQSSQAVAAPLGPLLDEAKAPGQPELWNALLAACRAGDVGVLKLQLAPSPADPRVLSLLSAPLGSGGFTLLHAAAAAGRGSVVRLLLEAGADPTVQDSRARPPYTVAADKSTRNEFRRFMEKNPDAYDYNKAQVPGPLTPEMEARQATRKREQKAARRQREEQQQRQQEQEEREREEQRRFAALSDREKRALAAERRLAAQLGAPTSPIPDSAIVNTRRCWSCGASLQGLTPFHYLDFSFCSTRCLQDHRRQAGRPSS

[5] = biological target: T5, additional sex combs like 1 (human, UniProt Q6P1M8 1-84); assay: as above; conditions: protein: commercial; label: biotin; intramolecular parallel G4
T5 sequence: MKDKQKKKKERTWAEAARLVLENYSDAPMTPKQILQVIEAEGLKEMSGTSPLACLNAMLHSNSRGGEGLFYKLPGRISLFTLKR

[6] = biological target: peripheral myelin protein 2 (human, UniProt P02689 1-132); assay: as above; conditions: protein: commercial; label: biotin; intramolecular parallel G4
[7] = biological target: Cyclin-dependent kinase-like 3 (human, UniProt Q8IVW4-2 1-455); assay: as above; conditions: protein: commercial; label: biotin; intramolecular parallel G4
[8] = biological target: T6, chromosome 1 open reading frame 63 (human, UniProt Q9BUV0 1-290); assay: as above; conditions: protein: commercial; label: biotin; intramolecular parallel G4
T6 sequence: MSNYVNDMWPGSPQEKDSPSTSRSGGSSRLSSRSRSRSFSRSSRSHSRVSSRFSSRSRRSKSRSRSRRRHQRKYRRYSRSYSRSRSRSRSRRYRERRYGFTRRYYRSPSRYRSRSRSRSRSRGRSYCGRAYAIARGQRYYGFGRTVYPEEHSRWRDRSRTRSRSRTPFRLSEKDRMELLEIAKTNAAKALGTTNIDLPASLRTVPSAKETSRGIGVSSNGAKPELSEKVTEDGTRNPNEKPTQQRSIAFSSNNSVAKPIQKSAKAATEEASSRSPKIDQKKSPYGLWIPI

[9] = biological target: actin related protein 2/3 complex, subunit 1B, 41 kDa (human, UniProt O15143 1-372); assay: as above; conditions: protein: commercial; label: biotin; intramolecular parallel G4
[10] = biological target: T7, hypothetical protein HSPC111 (human, UniProt Q9Y3C1 1-178); assay: protein microarray; 2.5 uM ON; 4.85 at 25 uM; Microarray: 20 mM Tris pH 7.5, 5 mM MgCl2, 100 mM KCl, 0.1% Tween-20, A/T-rich ON blocker mix; EMSA: 20 mM Tris-HCl pH 8, 100 mM KCl, 200 nM ON, 0-200 nM BRD3; conditions: protein: commercial; label: biotin; intramolecular parallel G4
T7 sequence: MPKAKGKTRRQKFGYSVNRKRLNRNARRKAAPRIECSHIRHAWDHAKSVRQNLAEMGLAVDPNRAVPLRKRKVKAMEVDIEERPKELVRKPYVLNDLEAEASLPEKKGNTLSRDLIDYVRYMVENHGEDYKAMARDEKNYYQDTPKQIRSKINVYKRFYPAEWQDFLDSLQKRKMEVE

[11] = biological target: T8, Peptidyl-tRNA hydrolase 2, mitochondrial (human, UniProt Q9Y3E5 1-179); assay: as above; conditions: protein: commercial; label: biotin; intramolecular parallel G4
T8 sequence: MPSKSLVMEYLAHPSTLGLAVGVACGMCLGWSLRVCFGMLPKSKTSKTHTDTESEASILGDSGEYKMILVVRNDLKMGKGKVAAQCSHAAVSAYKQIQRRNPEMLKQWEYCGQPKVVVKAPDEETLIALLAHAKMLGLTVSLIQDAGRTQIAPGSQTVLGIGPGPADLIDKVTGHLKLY

[12] = biological target: peptidyl arginine deiminase, type IV (human, UniProt Q9UM07 1-663); assay: as above; conditions: protein: commercial; label: biotin; intramolecular parallel G4
[13] = biological target: Coiled-coil domain-containing protein 28A (human, UniProt Q8IWP9 1-274); assay: as above; conditions: protein: commercial; label: biotin; intramolecular parallel G4
[14] = biological target: T9, bromodomain containing 3 (human, UniProt Q15059-2 1-556); assay: as above; conditions: protein: commercial; label: biotin; intramolecular parallel G4
[15] = biological target: T1, GABA(A) receptor-associated protein; assay: protein microarray; 2.5 uM ON; 6.47 at 25 uM; Microarray: 20 mM Tris pH 7.5, 5 mM MgCl2, 100 mM KCl, 0.1% Tween-20, A/T-rich ON blocker mix; EMSA: 20 mM Tris-HCl pH 8, 100 mM KCl, 200 nM ON, 0-200 nM BRD3; conditions: protein: commercial; label: biotin; G4; mixed topology for unmodified strand, CD differs when biotinylated
[16] = biological target: T5, additional sex combs like 1; assay: as above; conditions: protein: commercial; label: biotin; G4; mixed topology for unmodified strand, CD differs when biotinylated
[17] = biological target: T6, chromosome 1 open reading frame 63; assay: as above; conditions: protein: commercial; label: biotin; G4; mixed topology for unmodified strand, CD differs when biotinylated
[18] = biological target: T9, bromodomain containing 3; assay: as above; conditions: protein: commercial; label: biotin; G4; mixed topology for unmodified strand, CD differs when biotinylated

T1 sequence (O95166 whole entry): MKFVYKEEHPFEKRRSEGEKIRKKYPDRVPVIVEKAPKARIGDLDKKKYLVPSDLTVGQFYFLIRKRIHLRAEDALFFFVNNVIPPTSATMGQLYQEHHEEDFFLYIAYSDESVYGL
T9 sequence (Q15059 other isoform, or with tags, fused parts or gaps): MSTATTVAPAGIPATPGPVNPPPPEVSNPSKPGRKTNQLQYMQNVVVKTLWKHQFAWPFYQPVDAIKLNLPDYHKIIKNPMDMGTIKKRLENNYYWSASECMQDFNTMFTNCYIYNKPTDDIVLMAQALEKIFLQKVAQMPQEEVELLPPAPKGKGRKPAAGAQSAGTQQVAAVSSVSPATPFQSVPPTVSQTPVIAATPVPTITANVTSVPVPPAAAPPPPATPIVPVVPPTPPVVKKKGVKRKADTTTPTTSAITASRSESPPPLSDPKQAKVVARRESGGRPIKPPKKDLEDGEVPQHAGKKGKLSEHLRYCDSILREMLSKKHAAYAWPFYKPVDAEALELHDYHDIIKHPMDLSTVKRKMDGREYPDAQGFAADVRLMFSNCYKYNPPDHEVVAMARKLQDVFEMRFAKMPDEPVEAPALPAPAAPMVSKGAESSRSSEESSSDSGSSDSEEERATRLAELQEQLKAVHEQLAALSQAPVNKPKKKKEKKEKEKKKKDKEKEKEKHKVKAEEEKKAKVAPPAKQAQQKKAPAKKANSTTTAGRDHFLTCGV
Chain of Coiled-coil domain-containing protein 28A (Q8IWP9 whole entry, the tested form may be a part): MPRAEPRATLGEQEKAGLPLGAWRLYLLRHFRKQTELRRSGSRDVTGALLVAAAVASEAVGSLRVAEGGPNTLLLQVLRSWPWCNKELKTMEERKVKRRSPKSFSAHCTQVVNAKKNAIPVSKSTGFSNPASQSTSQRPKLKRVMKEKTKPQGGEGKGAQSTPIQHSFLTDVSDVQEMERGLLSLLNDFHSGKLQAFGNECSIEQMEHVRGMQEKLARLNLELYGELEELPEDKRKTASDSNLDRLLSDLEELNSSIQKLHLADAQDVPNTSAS
Chain of peptidyl arginine deiminase, type IV (Q9UM07 whole entry, the tested form may be a part): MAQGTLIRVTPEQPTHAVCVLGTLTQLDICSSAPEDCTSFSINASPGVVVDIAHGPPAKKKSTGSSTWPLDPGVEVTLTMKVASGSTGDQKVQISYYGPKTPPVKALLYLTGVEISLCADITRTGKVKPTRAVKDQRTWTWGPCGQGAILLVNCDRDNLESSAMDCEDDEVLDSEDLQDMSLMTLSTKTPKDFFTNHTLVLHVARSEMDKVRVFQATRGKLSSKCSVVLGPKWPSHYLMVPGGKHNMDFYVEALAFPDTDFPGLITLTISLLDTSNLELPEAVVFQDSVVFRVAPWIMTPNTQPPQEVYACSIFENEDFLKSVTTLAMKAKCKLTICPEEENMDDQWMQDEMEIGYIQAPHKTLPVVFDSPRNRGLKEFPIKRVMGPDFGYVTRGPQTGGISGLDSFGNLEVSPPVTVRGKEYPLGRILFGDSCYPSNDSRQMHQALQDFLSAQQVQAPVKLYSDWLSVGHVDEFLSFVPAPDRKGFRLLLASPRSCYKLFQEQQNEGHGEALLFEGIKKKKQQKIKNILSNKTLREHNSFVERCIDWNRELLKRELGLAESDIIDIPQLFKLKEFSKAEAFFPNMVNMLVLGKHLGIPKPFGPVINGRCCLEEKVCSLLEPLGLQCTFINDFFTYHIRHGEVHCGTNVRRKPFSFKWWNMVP
Chain of peripheral myelin protein 2 (P02689 whole entry): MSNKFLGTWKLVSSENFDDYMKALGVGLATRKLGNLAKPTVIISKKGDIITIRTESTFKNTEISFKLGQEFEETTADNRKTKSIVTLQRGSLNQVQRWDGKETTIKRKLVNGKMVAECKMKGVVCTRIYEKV
Chain of Cyclin-dependent kinase-like 3 (Q8IVW4 1-455): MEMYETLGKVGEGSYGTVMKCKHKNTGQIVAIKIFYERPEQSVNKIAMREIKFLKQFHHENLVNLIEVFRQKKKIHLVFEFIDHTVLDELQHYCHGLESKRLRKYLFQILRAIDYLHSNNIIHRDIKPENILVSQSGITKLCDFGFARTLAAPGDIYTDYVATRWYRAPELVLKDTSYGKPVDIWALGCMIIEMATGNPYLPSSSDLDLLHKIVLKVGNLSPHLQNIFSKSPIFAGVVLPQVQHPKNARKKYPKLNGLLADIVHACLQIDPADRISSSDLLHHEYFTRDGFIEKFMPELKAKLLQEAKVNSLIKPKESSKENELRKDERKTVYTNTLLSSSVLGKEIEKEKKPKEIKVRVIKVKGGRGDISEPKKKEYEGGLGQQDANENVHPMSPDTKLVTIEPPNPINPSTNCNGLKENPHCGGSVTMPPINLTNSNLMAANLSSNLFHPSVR

GGTGACAGGGGTATGGGGAGGGG (structured_DNA, 3'-biotin) [G4-2 biotinylated (Ct1)] was tested, and the binding signal [1] was 6.62 Z-score, the binding signal [2] was 6.45 Z-score and the binding signal [3] was 6.4 Z-score. It also gave a binding signal [4] of 6.68 Z-score, a binding signal [5] of 6.79 Z-score and a binding signal [6] of 6.73 Z-score. For the same binder, the binding signal [7] was 6.29 Z-score, the binding signal [8] was 6.17 Z-score and the binding signal [9] was 6.19 Z-score. It also gave a binding signal [10] of 6.78 Z-score, a binding signal [11] of 3.46 Z-score and a binding signal [12] of 6.78 Z-score. It also gave a binding signal [13] of 6.78 Z-score and a binding signal [14] of 6.79 Z-score.

GGGGACAGGGGTATGGGGAGGGG (structured_DNA, 3'-biotin) [G4-3 biotinylated (CtG)] showed a binding signal [15] of 7.02 Z-score, a binding signal [16] of 9.22 Z-score and a binding signal [17] of 5.93 Z-score. For the same binder, the binding signal [18] was 4.51 Z-score.
